From the supplement of paper PMC9112550, “Optimization of the antimicrobial peptide Bac7 by deep mutational scanning” (BMC Biology, 2022)

What follows are sequences tested on Escherichia coli TOP10 (assay: shrunken log2 fold change of peptide-encoding DNA abundance (4.5 h post-induction vs induction); higher = less antimicrobial activity (less host growth inhibition)). Conditions: time post-induction: 4.5 h; library: site-saturation at positions 5, 18, 19, 20.
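Also: peptides expressed intracellularly from a pBAD plasmid library in pooled LB shake-flask culture, induced with 0.3% L-arabinose, DNA abundance read by NGS, three biological replicates, DESeq2 with apeglm shrinkage.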

Sequence | shrunken log2 fold change
RRIRFRPPRLPRPRPRPCVIPRP | 0.0397
RRIRNRPPRLPRPRPRPYYHPRP | -0.781
RRIRWRPPRLPRPRPRPPHAPRP | 1.04
RRIRPRPPRLPRPRPRPCNFPRP | -0.129
RRIRYRPPRLPRPRPRPKKIPRP | -0.483
RRIRPRPPRLPRPRPRPAWHPRP | 0.362
RRIRDRPPRLPRPRPRPTIDPRP | 0.607
RRIRERPPRLPRPRPRPNPHPRP | -0.234
RRIRPRPPRLPRPRPRPGNRPRP | -0.0146
RRIRTRPPRLPRPRPRPQCNPRP | -0.0399
RRIRFRPPRLPRPRPRPICVPRP | -0.161
RRIRRRPPRLPRPRPRPLCSPRP | -0.255
RRIRFRPPRLPRPRPRPDWSPRP | -0.214
RRIRPRPPRLPRPRPRPKIKPRP | -0.0894
RRIRVRPPRLPRPRPRPSFLPRP | -0.666
RRIRVRPPRLPRPRPRPTVPPRP | -0.138
RRIRMRPPRLPRPRPRPAARPRP | 0.975
RRIRVRPPRLPRPRPRPHGVPRP | 0.0673
RRIRWRPPRLPRPRPRPIETPRP | 0.0333
RRIRLRPPRLPRPRPRPYHEPRP | -1.6
RRIRMRPPRLPRPRPRPMSTPRP | 0.0207
RRIRYRPPRLPRPRPRPNDRPRP | -0.0645
RRIRTRPPRLPRPRPRPTETPRP | 0.171
RRIRDRPPRLPRPRPRPIWNPRP | -0.0889
RRIRYRPPRLPRPRPRPCHFPRP | -0.0527

Sequence | shrunken log2 fold change
RRIRPRPPRLPRPRPRPLGPPRP | 0.153
RRIRPRPPRLPRPRPRPMQRPRP | 0.195
RRIRDRPPRLPRPRPRPSKCPRP | -0.317
RRIRERPPRLPRPRPRPSDPPRP | -0.417
RRIRGRPPRLPRPRPRPPKHPRP | 0.567
RRIRVRPPRLPRPRPRPLSRPRP | -0.132
RRIRARPPRLPRPRPRPDSVPRP | 0.118
RRIRIRPPRLPRPRPRPRADPRP | 0.0888
RRIRSRPPRLPRPRPRPWMTPRP | -0.000334
RRIRYRPPRLPRPRPRPKHNPRP | -0.68
RRIRQRPPRLPRPRPRPEVLPRP | 0.0411
RRIRTRPPRLPRPRPRPAVSPRP | 0.00645
RRIRARPPRLPRPRPRPVCHPRP | 0.321
RRIRQRPPRLPRPRPRPEEGPRP | -0.0102
RRIRSRPPRLPRPRPRPYWQPRP | -0.551
RRIRIRPPRLPRPRPRPTCWPRP | 0.151
RRIRQRPPRLPRPRPRPQFFPRP | -0.122
RRIRRRPPRLPRPRPRPFQGPRP | -0.0527
RRIRMRPPRLPRPRPRPFAWPRP | 0.139
RRIRARPPRLPRPRPRPLWRPRP | 0.24
RRIRLRPPRLPRPRPRPFFIPRP | -0.396
RRIRQRPPRLPRPRPRPHQKPRP | -0.0904
RRIRSRPPRLPRPRPRPMNRPRP | -0.378
RRIRGRPPRLPRPRPRPAIDPRP | 0.568
RRIRVRPPRLPRPRPRPPMSPRP | -0.249

Sequence | shrunken log2 fold change
RRIRFRPPRLPRPRPRPYGVPRP | -0.00783
RRIRTRPPRLPRPRPRPDIVPRP | -0.0539
RRIRCRPPRLPRPRPRPRTNPRP | 0.0761
RRIRNRPPRLPRPRPRPKIMPRP | 0.0385
RRIRPRPPRLPRPRPRPPHMPRP | 0.214
RRIRMRPPRLPRPRPRPMKSPRP | 0.0897
RRIRSRPPRLPRPRPRPETHPRP | 0.0531
RRIRPRPPRLPRPRPRPLLDPRP | 0.0537
RRIRMRPPRLPRPRPRPYYQPRP | -0.856
RRIRMRPPRLPRPRPRPPMSPRP | -0.114
RRIRTRPPRLPRPRPRPRWWPRP | 0.533
RRIRWRPPRLPRPRPRPFFRPRP | 0.33
RRIRKRPPRLPRPRPRPSRIPRP | 0.156
RRIRWRPPRLPRPRPRPEKIPRP | 2.76
RRIRRRPPRLPRPRPRPIFVPRP | 0.0119
RRIRKRPPRLPRPRPRPVHWPRP | 0.621
RRIRFRPPRLPRPRPRPLSDPRP | 0.207
RRIRKRPPRLPRPRPRPRFVPRP | 0.0638
RRIRGRPPRLPRPRPRPPSPPRP | 1.01
RRIRIRPPRLPRPRPRPMSAPRP | -0.205
RRIRGRPPRLPRPRPRPEFMPRP | 0.887
RRIRIRPPRLPRPRPRPSYCPRP | -0.408
RRIRPRPPRLPRPRPRPDHHPRP | -0.543
RRIRMRPPRLPRPRPRPHGVPRP | 0.023
RRIRYRPPRLPRPRPRPTCLPRP | -0.821

Sequence | shrunken log2 fold change
RRIRNRPPRLPRPRPRPYWWPRP | 0.0224
RRIRCRPPRLPRPRPRPQKSPRP | -0.554
RRIRWRPPRLPRPRPRPIKKPRP | -0.0218
RRIRERPPRLPRPRPRPIRYPRP | -0.00369
RRIRQRPPRLPRPRPRPFHPPRP | -0.197
RRIRERPPRLPRPRPRPCSRPRP | -0.00322
RRIRPRPPRLPRPRPRPSPMPRP | -0.259
RRIRWRPPRLPRPRPRPPYSPRP | -0.262
RRIRSRPPRLPRPRPRPWYFPRP | -0.85
RRIRWRPPRLPRPRPRPAADPRP | 1.21
RRIRIRPPRLPRPRPRPECKPRP | -0.259
RRIRQRPPRLPRPRPRPMCWPRP | -0.00818
RRIRWRPPRLPRPRPRPVIAPRP | 0.037
RRIRSRPPRLPRPRPRPILWPRP | -0.0848
RRIRKRPPRLPRPRPRPMGFPRP | -0.00871
RRIRTRPPRLPRPRPRPYVYPRP | -1.18
RRIRHRPPRLPRPRPRPHAPPRP | -0.0972
RRIRWRPPRLPRPRPRPEHGPRP | 0.265
RRIRSRPPRLPRPRPRPCLTPRP | -0.293
RRIRRRPPRLPRPRPRPPLDPRP | 1.24
RRIRPRPPRLPRPRPRPVCYPRP | -0.309
RRIRYRPPRLPRPRPRPFDKPRP | -0.0924
RRIRSRPPRLPRPRPRPKIPPRP | 1.16
RRIRNRPPRLPRPRPRPLHKPRP | -0.101
RRIRCRPPRLPRPRPRPMNTPRP | -0.727

Sequence | shrunken log2 fold change
RRIRLRPPRLPRPRPRPIPAPRP | -0.112
RRIRYRPPRLPRPRPRPVILPRP | -0.0444
RRIRIRPPRLPRPRPRPNPDPRP | -0.659
RRIRKRPPRLPRPRPRPGKPPRP | 0.115
RRIRDRPPRLPRPRPRPIMDPRP | 0.308
RRIRPRPPRLPRPRPRPHTIPRP | -0.39
RRIRHRPPRLPRPRPRPKSNPRP | -0.216
RRIRWRPPRLPRPRPRPPGMPRP | 0.759
RRIRKRPPRLPRPRPRPMKIPRP | 0.291
RRIRYRPPRLPRPRPRPRSSPRP | 0.069
RRIRIRPPRLPRPRPRPDLLPRP | -0.634
RRIRHRPPRLPRPRPRPKCHPRP | -0.201
RRIRHRPPRLPRPRPRPKFNPRP | -0.437
RRIRSRPPRLPRPRPRPFMLPRP | -0.411
RRIRTRPPRLPRPRPRPPQPPRP | 0.154
RRIRGRPPRLPRPRPRPPTCPRP | 0.172
RRIRMRPPRLPRPRPRPVNNPRP | -0.0848
RRIRERPPRLPRPRPRPATDPRP | -0.00755
RRIRLRPPRLPRPRPRPMHKPRP | -0.449
RRIRTRPPRLPRPRPRPELYPRP | -0.258
RRIRCRPPRLPRPRPRPSIPPRP | -0.969
RRIRSRPPRLPRPRPRPAYCPRP | 0.149
RRIRERPPRLPRPRPRPCWDPRP | -0.00421
RRIRFRPPRLPRPRPRPARWPRP | 0.577
RRIRARPPRLPRPRPRPCWKPRP | -0.16
